Results taken from IntAct's records for PubMed 33053321.

B1: Signal recognition particle subunit SRP54 (Homo sapiens), P61011 (parent)
chain: MVLADLGRKITSALRSLSNATIINEEVLNAMLKEVCTALLEADVNIKLVKQLRENVKSAIDLEEMASGLNKRKMIQHAVFKELVKLVDPGVKAWTPTKGKQNVIMFVGLQGSGKTTTCSKLAYYYQRKGWKTCLICADTFRAGAFDQLKQNATKARIPFYGSYTEMDPVIIASEGVEKFKNENFEIIIVDTSGRHKQEDSLFEEMLQVANAIQPDNIVYVMDASIGQACEAQAKAFKDKVDVASVIVTKLDGHAKGGGALSAVAATKSPIIFIGTGEHIDDFEPFKTQPFISKLLGMGDIEGLIDKVNELKLDDNEALIEKLKHGQFTLRDMYEQFQNIMKMGPFSQILGMIPGFGTDFMSKGNEQESMARLKKLMTIMDSMNDQELDSTDGAKVFSKQPGRIQRVARGSGVSTRDVQELLTQYTKFAQMVKKMGGIKGLFKGGDMSKNVSQSQMAKLNQQMAKMMDPRVLHHMGGMAGLQSMMRQFQQGAAGNMKGMMGFNNM
partner: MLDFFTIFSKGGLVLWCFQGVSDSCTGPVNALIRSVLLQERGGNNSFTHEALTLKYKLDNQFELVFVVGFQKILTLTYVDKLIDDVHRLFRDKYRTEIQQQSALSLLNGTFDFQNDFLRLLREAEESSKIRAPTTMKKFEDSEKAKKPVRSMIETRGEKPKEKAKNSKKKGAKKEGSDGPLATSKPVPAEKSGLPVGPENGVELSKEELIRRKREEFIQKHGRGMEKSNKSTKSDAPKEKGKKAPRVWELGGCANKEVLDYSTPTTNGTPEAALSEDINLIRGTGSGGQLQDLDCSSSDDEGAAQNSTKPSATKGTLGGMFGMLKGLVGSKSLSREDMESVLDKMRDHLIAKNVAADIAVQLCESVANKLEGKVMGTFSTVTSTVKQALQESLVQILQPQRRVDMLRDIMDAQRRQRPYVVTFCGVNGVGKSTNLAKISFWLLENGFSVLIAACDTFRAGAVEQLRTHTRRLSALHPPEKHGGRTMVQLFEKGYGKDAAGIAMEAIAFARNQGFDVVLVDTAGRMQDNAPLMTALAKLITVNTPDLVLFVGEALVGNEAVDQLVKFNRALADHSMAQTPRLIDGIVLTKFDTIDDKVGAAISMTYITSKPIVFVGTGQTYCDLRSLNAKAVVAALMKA
B2: Signal recognition particle subunit SRP54 (Saccharomyces cerevisiae), P20424 (parent)
chain: MVLADLGKRINSAVNNAISNTQDDFTTSVDVMLKGIVTALLESDVNIALVSKLRNNIRSQLLSENRSEKSTTNAQTKKLIQKTVFDELCKLVTCEGSEEKAFVPKKRKTNIIMFVGLQGSGKTTSCTKLAVYYSKRGFKVGLVCADTFRAGAFDQLKQNAIRARIPFYGSYTETDPAKVAEEGINKFKKEKFDIIIVDTSGRHHQEEELFQEMIEISNVIKPNQTIMVLDASIGQAAEQQSKAFKESSDFGAIILTKMDGHARGGGAISAVAATNTPIIFIGTGEHIHDLEKFSPKSFISKLLGIGDIESLFEQLQTVSNKEDAKATMENIQKGKFTLLDFKKQMQTIMKMGPLSNIAQMIPGMSNMMNQVGEEETSQKMKKMVYVLDSMTKEELESDGRMFIEEPTRMVRVAKGSGTSVFEVEMILMQQQMMARMAQTATQQQPGAPGANARMPGMPNMPGMPNMPGMPNMPGMPKVTPQMMQQAQQKLKQNPGLMQNMMNMFGGGMGGGMGGGMPDMNEMMKMMQDPQMQQMAKQFGMG
partner: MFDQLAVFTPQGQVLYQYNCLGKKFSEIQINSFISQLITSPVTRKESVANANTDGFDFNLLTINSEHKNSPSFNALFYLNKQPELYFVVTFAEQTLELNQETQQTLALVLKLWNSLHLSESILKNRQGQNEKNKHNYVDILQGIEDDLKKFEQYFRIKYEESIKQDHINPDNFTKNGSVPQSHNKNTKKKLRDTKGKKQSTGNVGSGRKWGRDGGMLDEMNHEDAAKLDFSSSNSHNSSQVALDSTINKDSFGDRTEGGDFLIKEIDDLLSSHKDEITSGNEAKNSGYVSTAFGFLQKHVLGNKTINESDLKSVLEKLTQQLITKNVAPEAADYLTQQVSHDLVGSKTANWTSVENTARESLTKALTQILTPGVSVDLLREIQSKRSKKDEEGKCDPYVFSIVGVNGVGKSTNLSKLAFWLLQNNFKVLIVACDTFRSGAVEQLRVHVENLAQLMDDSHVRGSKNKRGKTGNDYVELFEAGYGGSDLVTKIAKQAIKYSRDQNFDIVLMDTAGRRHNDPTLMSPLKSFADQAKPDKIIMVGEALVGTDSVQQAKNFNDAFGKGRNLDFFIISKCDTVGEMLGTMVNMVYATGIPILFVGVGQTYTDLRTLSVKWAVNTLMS

Variants of: B1
Details: with srpra_human SRPRA

Variant | effect of a mutation on the interaction
G226E | disrupting interaction strength
T115A | decreasing interaction strength

Variants of: B2
Details: with srpr_yeast SRP101, P32916

Variant | effect of a mutation on the interaction
G234E | disrupting interaction strength
